# Assay results: patent publication US20160251438A1 (LUDWIG INSTITUTE FOR CANCER RESEARCH, published 2016)
# B1: LHG-10 (antibody, human IgG1, V domains shown)
# VH: EVQLVQPGAELRNSGASVKVSCKASGYRFTSYYIDWVRQAPGQGLEWMGRIDPEDGGTKYAQKFQGRVTFTADTSTSTAYVELSSLRSEDTAVYYCARNEWETVVVGDLMYEYEYWGQGTQVTVSS
# VL: DIQMTQSPTSLSASLGDRVTITCQASQSISSYLAWYQQKPGQAPKLLIYGASRLQTGVPSRFSGSGSGTSFTLTISGLEAEDAGTYYCQQYDSLPVTFGQGTKVELK
# notes: llama-derived V regions in a full human IgG1
# Tests used:
# [1] = target: T1, recombinant soluble human GARP-TGFβ1 complex (human, UniProt Q14392 20-628; P01137 30-390); test: SPR (Biacore), hGARP-TGFβ1 immobilised
# T1 construct: co-expressed in HEK293E, purified by the Strep-Tag; TGFβ consists of LAP and mature TGFβ; also called shGARP-TGFβ; rhGARP-TGFβ
# T1 sequence (Q14392 other isoform, or with tags, fused parts or gaps limits assumed, chain 1 of 2): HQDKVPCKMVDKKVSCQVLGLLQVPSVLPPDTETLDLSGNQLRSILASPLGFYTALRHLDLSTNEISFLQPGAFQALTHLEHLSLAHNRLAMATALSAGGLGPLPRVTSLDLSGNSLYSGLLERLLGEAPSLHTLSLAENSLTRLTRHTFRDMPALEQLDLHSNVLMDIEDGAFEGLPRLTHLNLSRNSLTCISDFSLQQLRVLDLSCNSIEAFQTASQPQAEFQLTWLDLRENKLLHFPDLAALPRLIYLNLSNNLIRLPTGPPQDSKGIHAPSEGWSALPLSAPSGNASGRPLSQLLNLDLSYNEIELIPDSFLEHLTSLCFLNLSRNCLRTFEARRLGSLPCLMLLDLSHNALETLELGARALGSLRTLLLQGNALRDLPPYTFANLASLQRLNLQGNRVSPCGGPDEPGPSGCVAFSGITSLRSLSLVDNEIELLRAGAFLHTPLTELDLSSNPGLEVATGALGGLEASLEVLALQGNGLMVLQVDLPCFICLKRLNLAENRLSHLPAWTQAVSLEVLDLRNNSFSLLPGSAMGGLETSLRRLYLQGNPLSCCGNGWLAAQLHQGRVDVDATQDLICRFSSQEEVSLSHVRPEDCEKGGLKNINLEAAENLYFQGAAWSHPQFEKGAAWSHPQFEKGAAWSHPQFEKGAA
# T1 sequence (P01137 30-390 limits assumed, chain 2 of 2): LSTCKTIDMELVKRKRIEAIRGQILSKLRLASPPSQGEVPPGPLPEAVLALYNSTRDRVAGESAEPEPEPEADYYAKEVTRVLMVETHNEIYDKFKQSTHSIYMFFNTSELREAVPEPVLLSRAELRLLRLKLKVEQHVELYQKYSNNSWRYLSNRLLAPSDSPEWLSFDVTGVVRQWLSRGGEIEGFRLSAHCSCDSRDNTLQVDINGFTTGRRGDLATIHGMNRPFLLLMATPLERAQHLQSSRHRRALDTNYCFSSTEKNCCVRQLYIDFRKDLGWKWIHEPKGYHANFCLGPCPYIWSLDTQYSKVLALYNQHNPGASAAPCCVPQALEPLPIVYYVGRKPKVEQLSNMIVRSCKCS
# [2] = target: GARP Y137H / TGF-β1 complex (human, UniProt Q14392 20-662; P01137 30-390); test: flow cytometry on transfected 293T cells, 5 ug/ml; grade of Loss of binding read by footnote 2 (error bar crosses the 50% threshold)
# Sequence of GARP Y137H / TGF-β1 complex (Q14392 20-662 Y137H limits assumed, chain 1 of 2): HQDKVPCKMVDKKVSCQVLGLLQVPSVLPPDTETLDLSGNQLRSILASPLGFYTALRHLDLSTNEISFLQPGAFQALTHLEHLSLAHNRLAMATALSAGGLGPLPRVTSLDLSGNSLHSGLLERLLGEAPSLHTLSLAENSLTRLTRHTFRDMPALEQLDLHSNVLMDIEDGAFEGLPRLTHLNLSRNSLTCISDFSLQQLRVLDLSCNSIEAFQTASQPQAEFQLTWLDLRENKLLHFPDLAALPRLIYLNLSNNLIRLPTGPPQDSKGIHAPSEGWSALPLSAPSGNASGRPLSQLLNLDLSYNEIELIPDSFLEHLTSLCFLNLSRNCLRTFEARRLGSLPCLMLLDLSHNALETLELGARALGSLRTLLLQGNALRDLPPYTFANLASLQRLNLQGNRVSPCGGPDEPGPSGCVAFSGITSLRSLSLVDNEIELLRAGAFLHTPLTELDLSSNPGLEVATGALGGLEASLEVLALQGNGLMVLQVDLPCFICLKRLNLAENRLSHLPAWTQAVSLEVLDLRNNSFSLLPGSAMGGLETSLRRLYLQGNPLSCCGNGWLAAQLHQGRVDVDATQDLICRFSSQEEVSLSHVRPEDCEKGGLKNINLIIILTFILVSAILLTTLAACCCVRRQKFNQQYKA
# Sequence of GARP Y137H / TGF-β1 complex (P01137 30-390 limits assumed, chain 2 of 2): as the sequence (P01137 30-390 limits assumed, chain 2 of 2) above
# From the text: (§1) Resolution of the crystal structure of MHG-8 Fab/GARP/TGF-β1 complexes and analysis with the CONTACT software allowed the identification of 22 amino-acids in GARP, 8 amino-acids in LAP and 6 amino-acids in mature TGF-β1 that are located less than 5 Å away from an amino-acid of the light or heavy chain of the MHG-8 Fab (Tables 7a, b and c, and Table 8). Directed mutagenesis was used to construct plasmids encoding HA-tagged forms of GARP or TGF-β1 that are mutated at one, two, or three of these 36 positions (all mutations constructed are indicated in Table 8). […] Antibodies were used at a saturating concentration of 5 μg/ml for labeling. Binding of each antibody to a given mutant GARP/TGF-β1 complex was compared to their binding to wild type (WT) complexes, by determining an I_{m/wt} value (i.e. intensity of binding to mutant by comparison to WT). This value was calculated as follows: I_{m/wt} of antibody X=[Geom on mutant−Geom on control]/[Geom on WT−Geom on control]
# (§2) The level of residual binding of anti-GARP or anti-LAP antibodies to each mutant was then calculated by comparison to WT, taking into account the expression levels of mutant and WT forms as measured with anti-HA antibodies. Residual binding was calculated as follows: Residual binding by an anti-GARP or anti-LAP antibody=[I_{m/wt} with anti-GARP or anti-LAP antibody]/[I_{m/wt} with anti-HA antibody]
# [3] = target: GARP R143Y / TGF-β1 complex (human, UniProt Q14392 20-662; P01137 30-390); test: as above
# Sequence of GARP R143Y / TGF-β1 complex (Q14392 20-662 R143Y limits assumed, chain 1 of 2): as the sequence (Q14392 20-662 Y137H limits assumed, chain 1 of 2) above, with H118Y, R124Y counted along it
# Sequence of GARP R143Y / TGF-β1 complex (P01137 30-390 limits assumed, chain 2 of 2): as the sequence (P01137 30-390 limits assumed, chain 2 of 2) above
# From the text: as §1, §2
# [4] = target: GARP / TGF-β1 Y336A complex (human, UniProt Q14392 20-662; P01137 30-390); test: as above
# Sequence of GARP / TGF-β1 Y336A complex (Q14392 20-662 limits assumed, chain 1 of 2): as the sequence (Q14392 20-662 Y137H limits assumed, chain 1 of 2) above, with H118Y counted along it
# Sequence of GARP / TGF-β1 Y336A complex (P01137 30-390 Y336A limits assumed, chain 2 of 2): as the sequence (P01137 30-390 limits assumed, chain 2 of 2) above, with Y307A counted along it
# From the text: as §1, §2
binder,measurement,setting,value
B1,Kd,[1],0.131 nM
same,fold improvement of KD (reference LHG-10),[1],1 fold
same,fold improvement of ka (reference LHG-10),[1],1 fold
same,fold improvement of kd (reference LHG-10),[1],1 fold
same,koff,[1],3.12e-05 s⁻¹
same,kon,[1],239000 M⁻¹ s⁻¹
same,residual binding on mutant by comparison to WT,[2],≥ 50%
same,residual binding on mutant by comparison to WT,[3],≥ 50%
same,residual binding on mutant by comparison to WT,[4],≥ 50%
